PMC6780499, “Characterization, Recombinant Production and Structure-Function Analysis of NvCI, A Picomolar Metallocarboxypeptidase Inhibitor from the Marine Snail Nerita versicolor” (Marine Drugs, 2019)
No end group written: not given here.

What was measured:
Assay in all cases: Ki determination, tight-binding inhibition of metallocarboxypeptidase
Format in all cases: biochemical
hCPA2 = biological target: T1, hCPA2 (Homo sapiens, UniProt P48052); conditions: tight-binding equation fit, equilibrium conditions; substrate AAFP 0.1mM, 20mM Tris-HCl pH 7.5, 500mM NaCl; preincubation 15 min; 37 °C; means (n = 3) ± SD
T1 sequence (P48052 115-419): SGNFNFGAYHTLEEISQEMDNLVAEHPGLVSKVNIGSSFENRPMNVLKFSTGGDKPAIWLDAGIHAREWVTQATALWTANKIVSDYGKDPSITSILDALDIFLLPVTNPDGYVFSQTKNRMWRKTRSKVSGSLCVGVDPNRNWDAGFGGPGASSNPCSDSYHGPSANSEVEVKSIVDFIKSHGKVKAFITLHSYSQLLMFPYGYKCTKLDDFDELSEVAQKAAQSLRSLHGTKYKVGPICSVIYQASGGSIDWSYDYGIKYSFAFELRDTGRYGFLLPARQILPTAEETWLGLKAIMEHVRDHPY
Experimental: (§1) Inhibitory activities against CPA- and CPB-type forms (bovine and human variants of CPA1, CPA2, CPA4, CPB1, and TAFI) were assayed for all extracts, subject to the experimental conditions that enzyme (E), substrate (S) and inhibitor (I) concentrations as well as the [I]/[E] ratio and preincubation time followed the requirements for tight-binding inhibitor assays. Similar approaches were followed to measure the activities of proteases of different catalytic types, like pepsin, papain, trypsin and subtilisin [45, 46, 47, 48]. All assays were performed in triplicate at 25 °C in a multiplexed manner. For 96-well assays an iEMS spectrophotometer reader/dispenser FM (Labsystems, Finland) was used with a final reaction volume of 250 μL. For cuvette assays, a Cary 400 Bio spectrophotometer (Varian Inc., Palo Alto, CA, USA) spectrophotometer was used with a final reaction volume of 1 ml. The reactions were followed at 5 s intervals for 5 min and recorded as initial velocities. In the protease inhibition assays, mixtures of activity buffer, biological sample and enzyme were preincubated at 25 °C for 10min, before substrate addition. The assay conditions were as follows: for CPA-like enzymes, 7.0nM CPA, 0.1mM AAFP substrate in 20mM Tris-HCl pH 7.5, 500mMNaCl, 1% v/v dimethyl sulfoxide (DMSO), 0.05% w/v BRIJ-35 was used. For CPB-like enzymes, CPB 3.0nM CPB, 0.1mM AAFA substrate and activity buffer of 20 mM Tris-HCl pH [50].
(§2) The Ki values of natural and recombinant NvCI against bCPA1, hCPA1, hCPA2, rat CPA3, hCPA4, hCPB1, bTAFI, hTAFI, hCPD and hCPZ were determined by measuring the enzymatic residual activity (Vi/V0 = a) at different inhibitor concentrations and using a fixed enzyme and substrate concentrations as described above, where vi and v0 are the fraction of enzymatic activity in the presence and absence of inhibitor, respectively, in terms of initial velocities. The determination of Ki values was carried out on equilibrium conditions ([E0]/Ki ≤ 10), using a previously determined preincubation time of 15 min, required to establish enzyme-inhibitor equilibrium. Working temperature was 37 °C. The best estimates of Ki values were obtained by fitting the experimental data to the equation for tight-binding inhibitors by non-linear regression using the GraphPad Prisma 5 software (GraphPad Software, Inc., San Diego, CA, USA) at p < 0.05. The real Ki values against each of these A/B-type MCPs were calculated according to the equation described by Morrison and Copeland [19, 20].

hCPA4 = biological target: T2, hCPA4 (Homo sapiens, UniProt Q9UI42); conditions: tight-binding equation fit, equilibrium conditions; substrate AAFP 0.1mM, 20mM Tris-HCl pH 7.5, 500mM NaCl; preincubation 15 min; 37 °C; means (n = 3) ± SD
T2 sequence (Q9UI42 114-421): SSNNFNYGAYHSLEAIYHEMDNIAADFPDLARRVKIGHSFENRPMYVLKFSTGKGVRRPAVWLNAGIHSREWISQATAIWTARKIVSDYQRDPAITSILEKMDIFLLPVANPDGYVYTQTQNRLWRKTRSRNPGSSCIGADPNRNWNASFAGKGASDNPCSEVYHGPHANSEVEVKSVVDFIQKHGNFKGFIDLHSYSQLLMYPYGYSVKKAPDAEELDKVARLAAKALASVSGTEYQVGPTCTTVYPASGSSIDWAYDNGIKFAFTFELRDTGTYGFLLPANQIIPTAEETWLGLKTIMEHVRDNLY
Experimental: as §1, §2

hCPA1 = biological target: T3, hCPA1 (Homo sapiens, UniProt P15085); conditions: tight-binding equation fit, equilibrium conditions; substrate AAFP 0.1mM, 20mM Tris-HCl pH 7.5, 500mM NaCl; preincubation 15 min; 37 °C; means (n = 3) ± SD
T3 sequence (P15085 111-419): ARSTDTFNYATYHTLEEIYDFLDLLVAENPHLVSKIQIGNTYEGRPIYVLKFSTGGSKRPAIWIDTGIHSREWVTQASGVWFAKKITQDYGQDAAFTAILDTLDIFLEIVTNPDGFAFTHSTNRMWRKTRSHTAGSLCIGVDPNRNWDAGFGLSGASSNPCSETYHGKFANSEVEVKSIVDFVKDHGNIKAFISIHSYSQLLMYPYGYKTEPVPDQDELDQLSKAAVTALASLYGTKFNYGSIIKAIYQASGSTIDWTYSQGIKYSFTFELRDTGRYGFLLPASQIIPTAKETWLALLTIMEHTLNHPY
Experimental: as §1, §2

hCPZ = biological target: T4, hCPZ (Homo sapiens, UniProt Q66K79); conditions: NI: No inhibitory activity detected for the [I]0 range from 1 nM to 1 mM
T4 sequence (Q66K79 19-652): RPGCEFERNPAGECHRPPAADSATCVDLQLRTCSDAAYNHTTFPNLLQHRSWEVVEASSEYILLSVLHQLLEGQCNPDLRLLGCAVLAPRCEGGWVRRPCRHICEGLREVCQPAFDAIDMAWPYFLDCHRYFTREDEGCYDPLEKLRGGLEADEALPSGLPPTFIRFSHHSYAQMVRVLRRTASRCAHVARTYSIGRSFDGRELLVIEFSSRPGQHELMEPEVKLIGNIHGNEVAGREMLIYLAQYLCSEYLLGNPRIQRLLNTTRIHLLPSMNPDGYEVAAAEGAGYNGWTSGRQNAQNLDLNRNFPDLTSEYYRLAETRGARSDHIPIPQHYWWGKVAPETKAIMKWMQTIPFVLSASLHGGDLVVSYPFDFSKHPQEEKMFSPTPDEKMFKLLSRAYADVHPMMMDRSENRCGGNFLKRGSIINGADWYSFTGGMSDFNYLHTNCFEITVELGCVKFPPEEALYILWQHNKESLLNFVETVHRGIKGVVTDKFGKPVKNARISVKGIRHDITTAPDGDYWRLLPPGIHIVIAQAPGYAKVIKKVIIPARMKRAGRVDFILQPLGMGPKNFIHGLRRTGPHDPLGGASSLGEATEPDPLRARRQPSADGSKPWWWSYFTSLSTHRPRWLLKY
Experimental: as §1, §2

Ki (hCPA2): 0.00651 ± 6.86e-05 µM
Ki (hCPA4): 9.7 ± 1 pM
Ki (hCPA1): 1.8 ± 0.2 pM
Ki (hCPZ): > 1000 µM
Substance: NvCI: 53-residue, three-disulphide proteinaceous metallocarboxypeptidase inhibitor from the marine snail Nerita versicolor; major isoform; UniProt P86912 (FHVPDDRPCINPGRCPLVPDATCTFVCKAADNDFGYECQHVWTFEGQRVGCYA; disulfide (positions not given here); also: three disulphides, pairing not given here; UniProt P86912 1-53, looked up)
